# Test results published in PMC3784475 (PLoS Pathogens, 2013).
# B1: 4E10 IgG (antibody, V domains shown)
# VH: QVQLVQSGAEVKRPGSSVTVSCKASGGSFSTYALSWVRQAPGRGLEWMGGVIPLLTITNYAPRFQGRITITADRSTSTAYLELNSLRPEDTAVYYCAREGTTGWGWLGKPIGAFAHWGQGTLVTVSS
# VL: EIVLTQSPGTQSLSPGERATLSCRASQSVGNNKLAWYQQRPGQAPRLLIYGASSRPSGVADRFSGSGSGTDFTLTISRLEPEDFAVYYCQQYGQSLSTFGQGTKVEVK
# notes: variable domain in PDB 4LLV (4E10 Fv, solved here), 2FX7 (4E10 Fab) and 3H3P; IgG, the bivalent form; also called bNAb 4E10; Polymun AB004; source: bought: Polymun Scientific; copies: 2 + 2
# Columns and labels:
# [1] = molecular target: HIV gp140 SF162 trimers (HIV (isolate SF162)); assay: SPR; HIV gp140 SF162 trimers amine-coupled on a CM5 chip (3250 RU); HCDR3-grafted Ubq fusions injected at 1 µM and 5 or 10 µM; HBS-EP+ (10 mM HEPES pH 7.4, 150 mM NaCl, 3 mM EDTA, 0.05% P20); 25°C; duplicate runs
# [2] = molecular target: T1, Strep-tagged Scn control (Homo sapiens, UniProt P80188); assay: SPR; about 3000 RU of each Scn-peptide fusion or Strep-tagged Scn control amine-coupled on CM5 chips; 4E10 IgG injected at 300 nM in HBS-EP+ or HBS-EP+ at 500 mM NaCl; 25°C; responses normalised by specific activity; conditions: both partners purified
# T1 construct: siderocalin (Scn), human; also called siderocalin construct minus peptide; not shown: Strep-tag, C-terminal, kept
Molecule,Kd [1] [µM],binding result [2]
4E10 HCDR3-grafted ubiquitin fusion (designed binder),> 10,–
b12 HCDR3-grafted ubiquitin fusion (designed binder),> 10,–
2F5 HCDR3-grafted ubiquitin fusion (designed binder),> 10,–
B1,–,no binding (tested: 300 nM)
